Results as given in patent US20170081379A1.
Bridge positions count the residues as written; N and C are the ends. Square brackets hold non-standard residues; d marks the D form. Ends that are not written are not given here. R8 = C=CCCCCCC[C@@](C)(N)C(=O)O; S5 = C=CCCC[C@](C)(N)C(=O)O

How the values were obtained:
[1] = molecular target: recombinant HDM2 17-125 (human) (UniProt Q00987); assay: fluorescence polarization, FITC-labeled peptide with HDM2 17-125
[2] = molecular target: recombinant HDM2 17-125 (human) (UniProt Q00987); assay: fluorescence polarization, FITC-peptide with titrated HDM2 17-125; the concentration is that of hDM2

Sequence of recombinant HDM2 17-125 (human) (Q00987 17-125 limits assumed): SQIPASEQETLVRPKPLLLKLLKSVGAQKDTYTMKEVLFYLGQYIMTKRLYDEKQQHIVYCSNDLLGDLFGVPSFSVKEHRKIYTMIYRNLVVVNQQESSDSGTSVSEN

| Binder | Kd [1] [nM] | EC50 (read off the curve) [2] [nM] |
| --- | --- | --- |
| QSQQTF[R8]NLWKLL[S5]QN-NH2 (peptide, from a related filing, staple 7-14; not fully specified (N-terminus)) [FITC-SAH-p53-7] | 50 |  |
| LSQQTF[R8]NLWRLL[S5]QN-NH2 (peptide, from a related filing, staple 7-14; not fully specified (N-terminus)) [FITC-SAH-p53-6] | 56 |  |

These reach a lower Kd [1]. Values come first.

| Kd [1] [nM] | EC50 (read off the curve) [2] [nM] | Binder |
| --- | --- | --- |
| 0.92 |  | LSQETF[R8]DLWKLL[S5]EN-NH2 (peptide, from a related filing, staple 7-14; not fully specified (N-terminus)) [FITC-SAH-p53-4] |
| 0.8 | 0.8 | LSQETF[R8]NLWKLL[S5]QN-NH2 (peptide, from a related filing, staple 7-14; not fully specified (N-terminus)) [FITC-SAH-p53-5] |
